Test [1] concerns the target BoLA-3*00201 (JSP.1) heavy chain folded with recombinant human β2m (cattle (Holstein) | human) (UniProt P61769). Nature of the test: AlphaScreen or HTRF. In general terms: Alpha assays give light when donor and acceptor beads are brought close together.
Test [2] addresses BoLA-1*02301 (D18.4) heavy chain folded with recombinant human β2m (cattle (Holstein) | human) (UniProt P61769). As to the kind of experiment: AlphaScreen or HTRF.
In test [3] the target is BoLA-3*00101 (AW10) heavy chain folded with 125I-radiolabeled bovine met-β2m (cattle (Boran) | bovine) (UniProt P01888). Nature of the test: scintillation proximity assay. In general terms: Scintillation proximity formats need no separation of bound from free tracer.
For test [4], the target named is BoLA-3*00201 (JSP.1) heavy chain folded with 125I-radiolabeled bovine met-β2m (cattle (Holstein) | bovine) (UniProt P01888). As to the kind of experiment: scintillation proximity assay.
Test [5] concerns the target BoLA-2*01201 (T2A) heavy chain folded with 125I-radiolabeled bovine met-β2m (cattle (Holstein) | bovine) (UniProt P01888). As to the kind of experiment: scintillation proximity assay.
The target in test [6] is BoLA-T2C heavy chain folded with recombinant human β2m (cattle (Bos taurus×Bos indicus) | human) (UniProt P61769). Nature of the test: AlphaScreen or HTRF.
Test [7] has as its target BoLA-1*02301 (D18.4) heavy chain folded with 125I-radiolabeled bovine met-β2m (cattle (Holstein) | bovine) (UniProt P01888). Nature of the test: scintillation proximity assay.
The target in test [8] is BoLA-2*01201 (T2A) heavy chain folded with recombinant human β2m (cattle (Holstein) | human) (UniProt P61769). Nature of the test: AlphaScreen or HTRF.

Kd, half-life of the pBoLA-I complex and EC50 data for 8 substances are collected here from PMC4225172.

Turning to Ta9 epitope […] (peptide), the Kd in test [1] worked out at 309 nM; in test [2], 74 nM.

Turning to Tp8 379–387 epitope […] (peptide), the half-life of the pBoLA-I complex in test [3] was 14 h; in test [4], 2 h.

For Tp2 98–106 epitope […] (peptide), the half-life of the pBoLA-I complex in test [5] was found to be 3 h.

For Tp4 328–336 epitope … (peptide), the half-life of the pBoLA-I complex was 23 h in test [3] and 2 h in test [4].

Consider Tp2 96–104 epitope […] (peptide), for which the EC50 is 144 nM in test [6] and 767 nM in test [1]. This substance gave a half-life of the pBoLA-I complex in test [4] of 4 h.

In turn, Tp9 199–228 epitope […] (peptide) yielded a half-life of the pBoLA-I complex in test [7] of 4 h.

As to Tp2 49–59 epitope […] (peptide), the concentration for a half-maximal effect (EC50) in test [8] was 364 nM. The substance further came in with a half-life of the pBoLA-I complex in test [5] of 2 h.

Turning to Tp5 87–95 epitope … (peptide), the half-life of the pBoLA-I complex in test [7] amounted to 18 h.

By Kd is commonly meant the equilibrium constant for the complex coming apart. By EC50 is commonly meant the concentration at which the effect is half-maximal.
